# Assay results taken from paper PMC12455940.
# Target: leader of the capsid (LC) protein from Feline calicivirus (Feline calicivirus, Urbana strain)
# Assay: non-reducing SDS-PAGE and western blot; total protein extracts (RIPA) of FCV-infected CrFK cells, MOI of 5, 1 to 9 hpi; Laemmli buffer without β-ME; detected with anti-LC serum; also cells untreated or treated with 5 µM 16F16
substance,measurement,value
leader of the capsid (LC) protein from Feline calicivirus (natural protein),stoichiometry N,2
